Data from patent US20210071114.

T1: FRET substrate GGGFG
T1 chain: GGGFG

T2: FRET substrate GGGLG
T2 chain: GGGLG

T3: FRET substrate GGGSG
T3 chain: GGGSG

T4: FRET substrate GGGYG
T4 chain: GGGYG

T5: FRET-GGGGG (FRET substrate having pentaglycine between Nma and Lys(Dnp))
T5 chain: GGGGG

T6: keratin 10
T6 chain: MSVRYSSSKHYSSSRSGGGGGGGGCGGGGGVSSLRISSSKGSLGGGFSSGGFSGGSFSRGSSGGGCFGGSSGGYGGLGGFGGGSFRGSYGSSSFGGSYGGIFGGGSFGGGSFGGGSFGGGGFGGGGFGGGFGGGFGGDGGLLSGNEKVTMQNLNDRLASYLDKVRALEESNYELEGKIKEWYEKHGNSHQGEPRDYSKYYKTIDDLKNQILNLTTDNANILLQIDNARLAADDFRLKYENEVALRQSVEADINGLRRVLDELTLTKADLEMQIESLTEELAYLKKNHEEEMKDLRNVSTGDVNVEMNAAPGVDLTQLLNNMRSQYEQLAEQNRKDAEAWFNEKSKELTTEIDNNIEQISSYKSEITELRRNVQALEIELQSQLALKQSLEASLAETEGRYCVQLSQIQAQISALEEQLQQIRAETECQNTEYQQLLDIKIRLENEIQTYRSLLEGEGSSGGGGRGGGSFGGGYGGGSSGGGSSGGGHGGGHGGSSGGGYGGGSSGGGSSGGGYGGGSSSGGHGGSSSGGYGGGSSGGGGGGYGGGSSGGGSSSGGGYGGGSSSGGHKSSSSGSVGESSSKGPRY

T7: recombinant loricrin fused with a tag sequence (Recombinant Human Loricrin Protein; Abcam, ab114261)
T7 chain: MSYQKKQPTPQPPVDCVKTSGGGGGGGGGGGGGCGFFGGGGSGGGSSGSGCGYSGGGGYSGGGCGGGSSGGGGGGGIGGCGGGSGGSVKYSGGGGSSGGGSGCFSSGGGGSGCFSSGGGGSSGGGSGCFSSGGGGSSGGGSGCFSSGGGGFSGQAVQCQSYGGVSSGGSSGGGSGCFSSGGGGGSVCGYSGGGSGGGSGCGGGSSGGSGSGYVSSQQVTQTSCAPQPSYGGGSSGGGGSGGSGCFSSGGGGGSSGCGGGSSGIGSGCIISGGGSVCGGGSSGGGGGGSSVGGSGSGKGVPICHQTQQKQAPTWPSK


Columns and labels:
[1] = biological target: T1, FRET substrate GGGFG
[2] = biological target: T2, FRET substrate GGGLG
[3] = biological target: T3, FRET substrate GGGSG
[4] = biological target: T4, FRET substrate GGGYG
[5] = biological target: T5, FRET-GGGGG (FRET substrate having …)
[6] = biological target: corneocyte-derived insoluble keratin (insoluble corneum fraction from the human neck)
[7] = biological target: T6, keratin 10
[8] = biological target: keratin azure, which uses wool as a raw material (K8500)
[9] = biological target: keratin solution obtained from human heel corneum
[10] = biological target: T7, recombinant loricrin fused with a tag …

Protein	Specific activity (U/mg) [1] [U/mg]	Specific activity (U/mg) [2] [U/mg]	Specific activity (U/mg) [3] [U/mg]	Specific activity (U/mg) [4] [U/mg]	Specific activity (U/mg) [5] [U/mg]	Degradation of corneocyte-derived insoluble keratin, SDS-PAGE (ruby staining) of the supernatant [6]	Mass spectrometry of the SDS-PAGE band of the enzyme-treated solution [7]	ΔA595 of the supernatant (property of degrading wool keratin) [8]	Enzymatic degradation of keratin, SDS-PAGE (CBB staining) [9]	Loricrin-degrading activity, SDS-PAGE and N-terminus sequencing of the remaining bands [10]	Cleavage of keratin 10, concluded from SDS-PAGE bands and the mass spectrometry of the BLP sample [7]
β-lytic metalloprotease (beta-lytic metallopeptidase; BLP) (protein) SPNGLLQFPFPRGASWHVGGAHTNTGSGNYPMSSLDMSRGGGWGSNQNGNWVSASAAGSFKRHSSCFAEIVHTGGWSTTYYHLMNIQYNTGANVSMNTAIANPANTQAQALCNGGQSTGPHEHWSLKQNGSFYHLNGTYLSGYRITATGSSYDTNCSRFYLTKNGQNYCYGYYVNPGPN	83	3	231	74	186	A band was detected between the molecular weight marker of 37,000 and the molecular weight marker of 50,000 for all the solutions containing BLP, LasA, and AhP	the proteins contained in this band region were fragments of keratin 10	The absorbance of the samples containing Savinase (registered trade name), Alcalase (registered trade name), or proteinase K was increased compared with that of the samples containing BLP, LasA, or AhP	bands were detected between the molecular weight marker of 37,000 and the molecular weight marker of 50,000	none of the N-terminus amino acid sequences of the bands were the sequence of loricrin, the bands were inferred to be derived from the tag sequence	–
Aeromonas hydrophila proteinase (AhP) (protein) AGGQFQLPWRQGYSWKANGAHSHTGSGYPYSSIDVSYDWPGWGGATYTVTAANSGTVTVFSRCQVRVTATNGWATNYYHMSGISVRSGDYVAADTPIGTYASNRNEALCEGGSSTGPHLHFSLLYNGVFQSLQGQRLSSYAVNVGASNYDDNCNRFWLYNQRNGQRYCAWQPLYNNGID	51	31	10	98	53	A band was detected between the molecular weight marker of 37,000 and the molecular weight marker of 50,000 for all the solutions containing BLP, LasA, and AhP	–	The absorbance of the samples containing Savinase (registered trade name), Alcalase (registered trade name), or proteinase K was increased compared with that of the samples containing BLP, LasA, or AhP	bands were detected between the molecular weight marker of 37,000 and the molecular weight marker of 50,000	–	BLP and other M23A subfamily enzymes cleaved the glycine-rich regions at both ends of the amino acid sequence of keratin 10
Alcalase (registered trade name) (SIGMA, P4860) (protein) AQTVPYGIPLIKADKVQAQGFKGANVKVAVLDTGIQASHPDLNVVGGASFVAGEAYNTDGNGHGTHVAGTVAALDNTTGVLGVAPSVSLYAVKVLNSSGSGSYSGIVSGIEWATTNGMDVINMSLGGASGSTAMKQAVDNAYAKGVVVVAAAGNSGSSGNTNTIGYPAKYDSVIAVGAVDSNSNRASFSSVGAELEVMAPGAGVYSTYPTNTYATLNGTSMASPHVAGAAALILSKHPNLSASQVRNRLSSTATYLGSSFYYGKGLINVEAAAQ	–	–	–	–	–	–	–	The absorbance of the samples containing Savinase (registered trade name), Alcalase (registered trade name), or proteinase K was increased compared with that of the samples containing BLP, LasA, or AhP	major bands were lost for the solutions containing Savinase (registered trade name), Alcalase (registered trade name), and proteinase K	–	–
ALE-1 glycylglycine endopeptidase (ALE-1) (protein) STKVDAPKVEQEAPAKADAPKVEQEAPAKADAPKVEQEAPAKVDAPKVEQEAPAKVDAPKVEQEAPAKADAPKVEQKRTFVREAAQSNHSASWLNNYKKGYGYGPYPLGINGGNHYGVDFFMNVGTPVRAISDGKIVEAGWTNYGGGNEIGLVENDGVHRQWYMHLSKFNVKVGDRVKAGQIIGWSGSTGYSTAPHLHFQRMTNSFSNNTAQDPMPFLKSAGYGSNSTSSSNNNGYKTNKYGTLYKSESASFTANTDIITRLTGPFRSMPQSGVLRKGLTIKYDEVMKQDGHVWVGYNTNSGKRVYLPVRTWNESTGELGPLWGTIK	0	0	0	0	3	–	–	–	degradation of keratin was not observed for the solutions containing M23B subfamily enzymes ALE-1 and lysostaphin	–	–
Savinase (registered trade name) (SIGMA, P3111) (protein) AQSVPWGISRVQAPAAHNRGLTGSGVKVAVLDTGISTHPDLNIRGGASFVPGEPSTQDGNGHGTHVAGTIAALNNSIGVLGVAPSAELYAVKVLGASGSGSVSSIAQGLEWAGNNGMHVANLSLGSPSPSATLEQAVNSATSRGVLVVAASGNSGAGSISYPARYANAMAVGATDQNNNRASFSQYGAGLDIVAPGVNVQSTYPGSTYASLNGTSMATPHVAGAAALVKQKNPSWSNVQIRNHLKNTATSLGSTNLYGSGLVNAEAATR	–	–	–	–	–	–	–	The absorbance of the samples containing Savinase (registered trade name), Alcalase (registered trade name), or proteinase K was increased compared with that of the samples containing BLP, LasA, or AhP	major bands were lost for the solutions containing Savinase (registered trade name), Alcalase (registered trade name), and proteinase K	–	–
Las A protein (LasA or LAS) (protein) APPSNLMQLPWRQGYSWQPNGAHSNTGSGYPYSSFDASYDWPRWGSATYSVVAAHAGTVRVLSRCQVRVTHPSGWATNYYHMDQIQVSNGQQVSADTKLGVYAGNINTALCEGGSSTGPHLHFSLLYNGAFVSLQGASFGPYRINVGTSNYDNDCRRYYFYNQSAGTTHCAFRPLYNPGLAL	19	10	19	29	19	A band was detected between the molecular weight marker of 37,000 and the molecular weight marker of 50,000 for all the solutions containing BLP, LasA, and AhP	–	The absorbance of the samples containing Savinase (registered trade name), Alcalase (registered trade name), or proteinase K was increased compared with that of the samples containing BLP, LasA, or AhP	bands were detected between the molecular weight marker of 37,000 and the molecular weight marker of 50,000	–	BLP and other M23A subfamily enzymes cleaved the glycine-rich regions at both ends of the amino acid sequence of keratin 10
proteinase K (Kanto Chemical Co., Inc., 34076-92) (protein) AAQTNAPWGLARISSTSPGTSTYYYDESAGQGSCVYVIDTGIEASHPEFEGRAQMVKTYYYSSRDGNGHGTHCAGTVGSRTYGVAKKTQLFGVKVLDDNGSGQYSTIIAGMDFVASDKNNRNCPKGVVASLSLGGGYSSSVNSAAARLQSSGVMVAVAAGNNNADARNYSPASEPSVCTVGASDRYDRRSSFSNYGSVLDIFGPGTSILSTWIGGSTRSISGTSMATPHVAGLAAYLMTLGKTTAASACRYIADTANKGDLSNIPFGTVNLLAYNNYQA	–	–	–	–	–	–	–	The absorbance of the samples containing Savinase (registered trade name), Alcalase (registered trade name), or proteinase K was increased compared with that of the samples containing BLP, LasA, or AhP	major bands were lost for the solutions containing Savinase (registered trade name), Alcalase (registered trade name), and proteinase K	–	–
